Experimental data taken from IntAct's records for PubMed 35512704.

B1: Mothers against decapentaplegic homolog 4 (Homo sapiens), Q13485 (parent)
chain: MDNMSITNTPTSNDACLSIVHSLMCHRQGGESETFAKRAIESLVKKLKEKKDELDSLITAITTNGAHPSKCVTIQRTLDGRLQVAGRKGFPHVIYARLWRWPDLHKNELKHVKYCQYAFDLKCDSVCVNPYHYERVVSPGIDLSGLTLQSNAPSSMMVKDEYVHDFEGQPSLSTEGHSIQTIQHPPSNRASTETYSTPALLAPSESNATSTANFPNIPVASTSQPASILGGSHSEGLLQIASGPQPGQQQNGFTGQPATYHHNSTTTWTGSRTAPYTPNLPHHQNGHLQHHPPMPPHPGHYWPVHNELAFQPPISNHPAPEYWCSIAYFEMDVQVGETFKVPSSCPIVTVDGYVDPSGGDRFCLGQLSNVHRTEAIERARLHIGKGVQLECKGEGDVWVRCLSDHAVFVQSYYLDREAGRAPGDAVHKIYPSAYIKVFDLRQCHRQMQQQAATAQAAAAAQAAAVAGNIPGPGSVGGIAPAISLSAAAGIGVDDLRRLCILRMSFVKGWGPDYPRQSIKETPCWIEIHLHRALQLLDEVLHTMPIADPQPLD
partner: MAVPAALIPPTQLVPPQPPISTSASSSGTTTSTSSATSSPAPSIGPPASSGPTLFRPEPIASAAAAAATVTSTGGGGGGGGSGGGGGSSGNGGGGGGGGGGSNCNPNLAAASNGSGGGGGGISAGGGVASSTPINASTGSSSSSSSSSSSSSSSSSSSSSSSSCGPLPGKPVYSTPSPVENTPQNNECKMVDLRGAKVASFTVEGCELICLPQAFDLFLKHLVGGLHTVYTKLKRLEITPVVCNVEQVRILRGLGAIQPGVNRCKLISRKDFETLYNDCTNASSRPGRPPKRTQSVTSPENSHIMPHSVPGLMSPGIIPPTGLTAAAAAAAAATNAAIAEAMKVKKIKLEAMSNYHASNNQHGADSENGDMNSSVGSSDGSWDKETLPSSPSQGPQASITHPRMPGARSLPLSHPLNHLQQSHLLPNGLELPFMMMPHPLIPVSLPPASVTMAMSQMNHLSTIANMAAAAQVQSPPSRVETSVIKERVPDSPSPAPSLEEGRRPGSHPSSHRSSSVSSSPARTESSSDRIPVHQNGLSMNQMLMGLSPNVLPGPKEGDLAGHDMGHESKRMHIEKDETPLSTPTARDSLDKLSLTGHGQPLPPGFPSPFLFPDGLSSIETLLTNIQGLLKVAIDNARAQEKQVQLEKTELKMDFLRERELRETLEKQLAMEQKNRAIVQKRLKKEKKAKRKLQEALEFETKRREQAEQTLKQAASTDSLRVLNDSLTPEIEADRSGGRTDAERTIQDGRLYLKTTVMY
B2: Mothers against decapentaplegic homolog 4 (Homo sapiens), Q13485 (parent)
chain: B1 chain
partner: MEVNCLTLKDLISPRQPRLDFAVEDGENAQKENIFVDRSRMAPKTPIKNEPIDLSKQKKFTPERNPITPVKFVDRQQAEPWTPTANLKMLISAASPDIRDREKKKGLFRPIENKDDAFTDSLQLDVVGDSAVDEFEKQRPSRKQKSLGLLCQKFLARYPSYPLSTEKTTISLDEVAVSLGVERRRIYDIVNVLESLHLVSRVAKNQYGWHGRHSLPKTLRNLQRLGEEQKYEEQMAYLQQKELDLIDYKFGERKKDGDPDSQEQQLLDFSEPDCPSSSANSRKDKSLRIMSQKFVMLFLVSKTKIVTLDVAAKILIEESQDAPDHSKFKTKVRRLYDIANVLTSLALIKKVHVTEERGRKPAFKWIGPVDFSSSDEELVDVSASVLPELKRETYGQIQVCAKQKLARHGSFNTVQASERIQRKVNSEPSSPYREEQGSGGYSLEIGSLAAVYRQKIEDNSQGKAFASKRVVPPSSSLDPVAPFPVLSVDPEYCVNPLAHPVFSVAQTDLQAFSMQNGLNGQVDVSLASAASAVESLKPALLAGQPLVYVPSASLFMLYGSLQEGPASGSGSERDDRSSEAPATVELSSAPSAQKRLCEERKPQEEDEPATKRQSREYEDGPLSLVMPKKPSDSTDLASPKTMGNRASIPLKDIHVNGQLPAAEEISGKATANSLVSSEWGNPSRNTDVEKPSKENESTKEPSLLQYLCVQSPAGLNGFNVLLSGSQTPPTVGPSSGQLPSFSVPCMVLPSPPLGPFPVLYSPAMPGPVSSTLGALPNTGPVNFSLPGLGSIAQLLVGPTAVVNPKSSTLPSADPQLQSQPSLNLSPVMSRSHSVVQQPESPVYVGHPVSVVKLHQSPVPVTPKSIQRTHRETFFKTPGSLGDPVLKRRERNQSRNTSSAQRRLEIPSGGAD
B3: Mothers against decapentaplegic homolog 4 (Homo sapiens), Q13485 (parent)
chain: B1 chain
partner: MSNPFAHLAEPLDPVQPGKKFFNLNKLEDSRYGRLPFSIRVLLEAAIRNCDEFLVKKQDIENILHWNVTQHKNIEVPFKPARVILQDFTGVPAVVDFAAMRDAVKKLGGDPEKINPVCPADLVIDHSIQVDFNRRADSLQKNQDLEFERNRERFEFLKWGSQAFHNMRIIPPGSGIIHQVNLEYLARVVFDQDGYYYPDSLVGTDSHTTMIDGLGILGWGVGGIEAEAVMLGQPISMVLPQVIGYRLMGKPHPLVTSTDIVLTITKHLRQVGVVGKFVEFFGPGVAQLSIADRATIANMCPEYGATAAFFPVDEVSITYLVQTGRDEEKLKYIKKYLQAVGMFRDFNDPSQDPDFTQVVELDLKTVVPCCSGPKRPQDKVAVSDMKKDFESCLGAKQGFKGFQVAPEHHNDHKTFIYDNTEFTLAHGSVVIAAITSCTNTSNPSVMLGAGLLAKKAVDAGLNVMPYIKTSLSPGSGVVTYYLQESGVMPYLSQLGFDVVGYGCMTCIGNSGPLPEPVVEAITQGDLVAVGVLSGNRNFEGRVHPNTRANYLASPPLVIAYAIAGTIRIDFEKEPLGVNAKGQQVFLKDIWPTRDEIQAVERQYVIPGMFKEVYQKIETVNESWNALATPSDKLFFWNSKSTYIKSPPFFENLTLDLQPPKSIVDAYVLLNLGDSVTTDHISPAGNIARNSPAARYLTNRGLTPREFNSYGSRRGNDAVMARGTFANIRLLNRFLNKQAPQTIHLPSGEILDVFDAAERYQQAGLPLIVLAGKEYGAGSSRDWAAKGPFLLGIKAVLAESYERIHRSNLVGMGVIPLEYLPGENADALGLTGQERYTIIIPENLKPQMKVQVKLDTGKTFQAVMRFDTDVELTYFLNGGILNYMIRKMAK
B4: Mothers against decapentaplegic homolog 4 (Homo sapiens), Q13485 (parent)
chain: B1 chain
partner: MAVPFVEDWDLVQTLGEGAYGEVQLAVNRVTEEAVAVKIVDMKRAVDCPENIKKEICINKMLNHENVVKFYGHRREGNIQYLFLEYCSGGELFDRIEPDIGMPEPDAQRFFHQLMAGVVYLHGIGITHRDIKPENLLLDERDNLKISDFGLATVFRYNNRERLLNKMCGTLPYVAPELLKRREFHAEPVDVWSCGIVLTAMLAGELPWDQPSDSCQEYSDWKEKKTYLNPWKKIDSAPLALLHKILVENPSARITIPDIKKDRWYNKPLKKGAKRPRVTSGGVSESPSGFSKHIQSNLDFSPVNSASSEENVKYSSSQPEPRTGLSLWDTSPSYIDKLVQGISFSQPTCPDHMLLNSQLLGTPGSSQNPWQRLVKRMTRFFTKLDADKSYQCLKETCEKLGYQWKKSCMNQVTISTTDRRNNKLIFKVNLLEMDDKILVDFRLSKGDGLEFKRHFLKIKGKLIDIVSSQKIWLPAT
B5: Mothers against decapentaplegic homolog 4 (Homo sapiens), Q13485 (parent)
chain: B1 chain
partner: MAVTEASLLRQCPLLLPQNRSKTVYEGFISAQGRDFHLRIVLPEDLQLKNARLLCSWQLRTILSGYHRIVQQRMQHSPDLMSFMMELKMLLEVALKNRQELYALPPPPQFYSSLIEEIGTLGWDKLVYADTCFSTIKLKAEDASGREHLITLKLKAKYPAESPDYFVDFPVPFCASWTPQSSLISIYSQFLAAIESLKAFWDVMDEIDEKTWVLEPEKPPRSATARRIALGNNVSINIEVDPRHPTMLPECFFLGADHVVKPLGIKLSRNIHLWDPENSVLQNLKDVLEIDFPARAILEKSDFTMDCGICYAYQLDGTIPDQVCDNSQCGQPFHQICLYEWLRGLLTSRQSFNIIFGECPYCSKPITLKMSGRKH

Variants of: B1
Details: with dach1_human DACH1, Q9UI36

effect of a mutation on the interaction	Variant
with no effect	R361H

Variants of: B2
Details: with e2f7_human E2F7, Q96AV8

effect of a mutation on the interaction	Variant
with no effect	D351H

Variants of: B2
Details: with e2f7_human E2F7, Q96AV8
Remark: another data set of the same source

effect of a mutation on the interaction	Variant
with no effect	G386D

Variants of: B3
Details: with acohc_human ACO1, P21399

effect of a mutation on the interaction	Variant
with no effect	G386D

Variants of: B3
Details: with acohc_human ACO1, P21399
Remark: another data set of the same source

effect of a mutation on the interaction	Variant
with no effect	R361H

Variants of: B3
Details: with acohc_human ACO1, P21399
Remark: another data set of the same source

effect of a mutation on the interaction	Variant
with no effect	R361C

Variants of: B3
Details: with acohc_human ACO1, P21399
Remark: another data set of the same source

effect of a mutation on the interaction	Variant
with no effect	D351H

Variants of: B4
Details: with chk1_human CHEK1, O14757

effect of a mutation on the interaction	Variant
with no effect	D351H

Variants of: B4
Details: with chk1_human CHEK1, O14757
Remark: another data set of the same source

effect of a mutation on the interaction	Variant
with no effect	G386D

Variants of: B4
Details: with chk1_human CHEK1, O14757
Remark: another data set of the same source

effect of a mutation on the interaction	Variant
with no effect	R361C

Variants of: B4
Details: with chk1_human CHEK1, O14757
Remark: another data set of the same source

effect of a mutation on the interaction	Variant
with no effect	R361H

Variants of: B5
Details: with fancl_human FANCL

effect of a mutation on the interaction	Variant
with no effect	R361C
